From publication PMC314469, “Protein Interaction Networks by Proteome Peptide Scanning” (PLoS Biology, 2004) come the findings set out here.

Assay in all cases: SPOT array
For test [1], the target named is T1, Rvs167 SH3 (RV167_YEAST), P39743.
T1 chain: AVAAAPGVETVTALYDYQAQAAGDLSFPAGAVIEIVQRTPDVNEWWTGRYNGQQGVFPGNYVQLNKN

Test [2] has as its target T2, Boi1 SH3 (BOI1_YEAST), P38041.
T2 chain: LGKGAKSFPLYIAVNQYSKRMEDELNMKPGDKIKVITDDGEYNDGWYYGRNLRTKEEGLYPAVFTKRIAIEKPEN

Test [3] deals with T3, Boi2 SH3 (BOI2_YEAST), P39969.
T3 chain: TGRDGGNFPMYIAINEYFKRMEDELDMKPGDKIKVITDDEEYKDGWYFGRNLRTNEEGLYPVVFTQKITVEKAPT

Test [4] concerns the target T4, Yhr016c SH3 (YSC84_YEAST), P32793.
T4 chain: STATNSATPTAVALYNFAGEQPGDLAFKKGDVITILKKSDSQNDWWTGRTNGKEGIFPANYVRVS

For test [5], the target named is T5, Yfr024 SH3 (LSB3_YEAST), P43603.
T5 chain: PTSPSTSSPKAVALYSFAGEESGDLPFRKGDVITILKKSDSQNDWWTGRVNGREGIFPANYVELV

For LVQPNVPEKHNMST [YHL002W 144-157], the normalised SPOT signal, Boehringer light units (BLU); mean over the file's lines of this peptide in test [1] amounted to 44.1; in test [2], 52.4; in test [3], 48.3; in test [4], 107; in test [5], 94.6.

For the molecule LSSPSLPPKVNATN [YEL042W 325-338], the normalised SPOT signal, Boehringer light units (BLU); mean over the file's lines of this peptide came to 34.7 in test [1]; 113 in test [2]; 22 in test [3]; 92.2 in test [4]; 3210 in test [5].

Consider LVIPSTPSKKSKYS [YOR315W 23-36], for which the normalised SPOT signal, Boehringer light units (BLU); mean over the file's lines of this peptide in test [1] is 32.2; in test [2] it was 94.8; in test [3] it was 37.5; in test [4], 95.7; in test [5] it was 627.

In the case of MEYPFKPPKMQFDT [YDR177W 60-73], the normalised SPOT signal, Boehringer light units (BLU); mean over the file's lines of this peptide in test [1] was determined as 68.7; in test [2] it was 56.3; in test [3], 55.1; in test [4], 178; in test [5], 483.

Regarding LTLPFGPVKSIWLS [YGR227W 189-202], the normalised SPOT signal, Boehringer light units (BLU); mean over the file's lines of this peptide in test [1] is 17.2; in test [2], 5.9; in test [3], 41.5; in test [4], 297; in test [5], 36.6.

LTSPFEPPKPKTKH [YJR064W 272-285]: the normalised SPOT signal, Boehringer light units (BLU); mean over the file's lines of this peptide in test [1] is 8.1; in test [2], 188; in test [3], 33.7; in test [4], 149; in test [5], 82.2.

For the molecule LVQPVVPDKVFSFR [YER036C 368-381], the normalised SPOT signal, Boehringer light units (BLU); mean over the file's lines of this peptide in test [1] came out at 63.5; in test [2] it was 124; in test [3], 52; in test [4], 370; in test [5], 311.

Consider LTSPKNPIKSVTKF [YDR172W 569-582], for which the normalised SPOT signal, Boehringer light units (BLU); mean over the file's lines of this peptide in test [1] was 96.1; in test [2] it was 547; in test [3] it was 25.9; in test [4], 40.3; in test [5], 227.

As to LWQPVDPSREDLVI [YLR301W 128-141], the normalised SPOT signal, Boehringer light units (BLU); mean over the file's lines of this peptide stood at 0.8 in test [1]; 49.2 in test [2]; 51.5 in test [3]; 139 in test [4]; 179 in test [5].

With MPTPMTPVKVGALA [YNL040W 1-14], the normalised SPOT signal, Boehringer light units (BLU); mean over the file's lines of this peptide in test [1] was 11; in test [2], 13.5; in test [3], 55; in test [4] it was 66.7; in test [5], 288.

On to MKAPKMPDKHRDNY [YDL031W 923-936], for which the normalised SPOT signal, Boehringer light units (BLU); mean over the file's lines of this peptide in test [1] is 331; in test [2], 163; in test [3] it was 162; in test [4], 399; in test [5], 1760.

As to MQGPKIPWRSGRVD [YKR066C 186-199], the normalised SPOT signal, Boehringer light units (BLU); mean over the file's lines of this peptide came out at 1270 in test [1]; 2850 in test [2]; 651 in test [3]; 13800 in test [4]; 15900 in test [5].

For the molecule MALPRTPLKTSTEE [YCL009C 276-289], the normalised SPOT signal, Boehringer light units (BLU); mean over the file's lines of this peptide in test [1] came out at 338; in test [2], 100; in test [3] it was 101; in test [4] it was 280; in test [5], 1130.

Consider LSTPSAPAKINNYS [YDR109C 605-618], for which the normalised SPOT signal, Boehringer light units (BLU); mean over the file's lines of this peptide was 30.6 in test [1]; 18.3 in test [2]; 37.9 in test [3]; 144 in test [4]; 174 in test [5].

Regarding LVTPEEPAKNKSER [YDL129W 13-26], the normalised SPOT signal, Boehringer light units (BLU); mean over the file's lines of this peptide came to 78.8 in test [1]; 126 in test [2]; 74.6 in test [3]; 69.6 in test [4]; 49.1 in test [5].

On to LYKPGMPPRPHFIT [YNL045W 494-507], for which the normalised SPOT signal, Boehringer light units (BLU); mean over the file's lines of this peptide in test [1] turned out to be 34.7; in test [2] it was 25.6; in test [3], 60.6; in test [4] it was 326; in test [5], 899.

With LWIPDDPSKARFLS [YJR152W 267-280], the normalised SPOT signal, Boehringer light units (BLU); mean over the file's lines of this peptide in test [1] is 36.6; in test [2], 63.1; in test [3], 25.2; in test [4], 200; in test [5], 561.

For MAAPPVPPKQSQED [YPL084W 790-803], the normalised SPOT signal, Boehringer light units (BLU); mean over the file's lines of this peptide in test [1] was found to be 52.4; in test [2], 84.2; in test [3], 40.6; in test [4] it was 279; in test [5], 4570.

MLIPNFPNKKLKLN [YHR086W 128-141]: the normalised SPOT signal, Boehringer light units (BLU); mean over the file's lines of this peptide in test [1] was 70.8; in test [2] it was 34.7; in test [3], 59.7; in test [4], 423; in test [5], 1090.
